This passage reports Km, kcat and kcat/Km results from article PMC10520873, “Biochemical investigation of the tryptophan biosynthetic enzyme anthranilate phosphoribosyltransferase in plants” (The Journal of Biological Chemistry, 2023).

By Km is commonly meant the substrate concentration at which the rate is half of its maximum. One may read the kcat as the number of substrate molecules converted per active site and unit of time at saturation. The kcat/Km is the turnover number divided by the Michaelis constant.

Substrate in the data set: Nc1c(O)cccc1C(=O)O
In words: purified protein. Type of data set: biochemical, Physcomitrium patens. To be noted: 1 mM PR-PPi, 45 mM imidazole HCl pH 7.4, 30 °C, 3-HAA 0-0.5 mM.

B1: PpPAT1 (Physcomitrium patens) (protein)
chain: MAAALASQRTWLPSSSVGPFRGSFATAPASSPRVLGVPRKFAVESGKWEVLVRNVRAQSSTVTVPARTLSIPQVLEQLIQGTNLTQAQTEEVMETLLADANPAIIGAFLALLRAKGETLDEVTGLASAMLSRAIPVRTVPGSLDIVGTGGDGANTVNISTGSCILAAACGAKVAKHGSRSSSSACGSADVLETLGVAIDLGPEGVAKCVEDVGVGFMFAPTYHPAMKVVAPVRRSLKIKTAFNILGPMLNPSRAPHSIVGVYHDNLVEKMAKILQHFGTKRTLVVHCHGLDEMSPLGGGRVLEVTQDKIESFVFDPLNFGIPRCTLEDLKGGNADFNAKSLRNVFAGEPGPIADSLILNAAAGIMACGLVKDLGEGVSLARDVLRSGRANTVLDNWISLSQKLKAEEVSE
notes: codon-optimized gene in pET28a, His-tagged, E. coli BL21 (DE3), Ni-NTA
As for B1, the Km is 99.71 ± 11.2 µM, the kcat stood at 0.0533 ± 0.00167 s⁻¹ and the kcat/Km came to 537 M⁻¹ s⁻¹.
